# Data taken from US20220119518A1 (KUMHO HT, published 2022).
# Changes are numbered by the printed parent chain.
# T1: Antigen CD66c (CEACAM6; Sino Biological, Inc.) (UniProt P40199 35-320)
# T1 construct: Bought antigen, coated on the ELISA plate; construct not described; also called CECACAM6 (CD66c) antigen; CD66c antigen
# T1 sequence (looked up): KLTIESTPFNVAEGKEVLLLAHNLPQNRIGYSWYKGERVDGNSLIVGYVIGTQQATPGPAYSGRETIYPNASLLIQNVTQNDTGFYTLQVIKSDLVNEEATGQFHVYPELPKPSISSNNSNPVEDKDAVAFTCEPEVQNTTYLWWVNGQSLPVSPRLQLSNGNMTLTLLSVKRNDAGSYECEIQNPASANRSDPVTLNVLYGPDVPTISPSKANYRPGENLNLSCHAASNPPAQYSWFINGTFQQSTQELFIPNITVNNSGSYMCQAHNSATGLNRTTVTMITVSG
# T2: CEACAM1 antigen (Sino Biological, Inc.) (UniProt P13688 35-428)
# T2 construct: Bought antigen, coated on the ELISA plate; construct not described; also called CEACAM1 (CD66a) antigen; CD66a
# T2 sequence (looked up): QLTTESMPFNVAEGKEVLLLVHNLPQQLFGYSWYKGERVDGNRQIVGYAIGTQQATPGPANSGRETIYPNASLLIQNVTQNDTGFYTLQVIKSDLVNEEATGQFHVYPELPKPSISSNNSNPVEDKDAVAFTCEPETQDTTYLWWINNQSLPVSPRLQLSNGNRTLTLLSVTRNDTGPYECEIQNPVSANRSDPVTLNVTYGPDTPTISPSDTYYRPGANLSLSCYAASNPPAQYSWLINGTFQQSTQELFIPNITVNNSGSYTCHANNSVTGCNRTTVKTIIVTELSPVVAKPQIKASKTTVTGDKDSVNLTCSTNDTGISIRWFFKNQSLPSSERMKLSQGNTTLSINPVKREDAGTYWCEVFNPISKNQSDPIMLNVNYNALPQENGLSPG
# B1: recombinant humanized anti-CD66c antibody Protein ID 3058 (Vk8 + VH11) (antibody, human IgG1, V domains shown)
# VH: QVQLVQSGAEVKKPGASVKISCKASGYSFTDYTMHWVKQAPGQNLEWIGLINPFGGSTSYAQKFKGRVTMTRDTSTNTAYMELSRLRSDDTAVYYCVRGDPVRHYYALAYWGQGTLVTVSS
# VL: DIQMTQSPSTLSASVGDRVTITCRASENVYGTLNWYQRKPGKAPKLLIYGATNLADGMPSRFSGSGSGTEYTLTISSLQPDDFATYYCQNVLSAPYTFGGGTKLEIK
# notes: also called hu 3058; #86
# B2: recombinant humanized anti-CD66c antibody Protein ID 3007 (Vk7 + VH6) (antibody, human IgG1, V domains shown)
# VH: QVQLVQSGAEVKKPGASMKISCKASGYSFTDYTMNWVKQAPGQNLEWIGLINPFHGGTVSNQRFKVKATLTVDVSTNTAYMELSRLRSDDTAVYYCVRGDPVRHYYALAYWGQGTLVTVSS
# VL: B1 VL with R24G, M58V
# notes: also called hu 3007; #43
# B3: recombinant humanized anti-CD66c antibody Protein ID 3043 (Vk8 + VH6) (antibody, V domains shown)
# VH: B2 VH
# VL: B1 VL
# notes: also called hu 3043; #71
# B4: recombinant humanized anti-CD66c antibody Protein ID 2938 (Vk5 + VH7) (antibody, human IgG1, V domains shown)
# VH: B2 VH with K38R, N44G
# VL: B1 VL with R24G, N34A, M58V, T69R
# notes: also called hu 2938
# B5: anti-CD66c chimeric antibody 8F5 (antibody, human IgG1, V domains shown)
# VH: EVQLQQSGPELVKPGASMKISCKASGYSFTDYTMNWVKQSHGKNLEWIGLINPFHGGTVSNQRFKVKATLTVDVSSNTAYMELLSLTSDDSAVYYCVRGDPVRHYYALAYWGQGTSVTVSS
# VL: DIQMTQSPASLSASVGETVTITCGASENVYGTLNWYQRKQGKSPQLLIYGATNLADGMSSRFSGSGSGRQYSLKISSLHPDDVATYYCQNVLSAPYTFGGGTKLEII
# notes: also called chimeric 8F5; chi 8F5
# Target: T1, Antigen CD66c (CEACAM6; Sino …)
# Assay: ELISA, CEACAM6 coated 100 ng/well, antibody at 0.17 ng/ml
# Experimental: (§1) Antigen CD66c (CEACAM6; Sino Biological, Inc.) and CEACAM1 antigen (Sino Biological, Inc.) were coated on a 96-well plate at a rate of 100 ng per well and then blocked. The primary antibody was diluted 3-fold from 10 ug/ml and bound at 37° C. for 1 hour. […] goat anti-Human Ig-HRP conjugate (Jackson ImmunoResearch) as a secondary antibody was diluted 1:10,000 and incubated at 37° C. for 30 minutes. The washing was carried out at three times between each step, and the TMB reaction was performed, stopped with 1N H₂SO₄ solution at the same amount of TMB solution (100 ul) and then OD value was measured at 450 nm.
# (§2) As a result of the experiment, the binding affinities to CD66c antigen of the five kinds of recombinant humanized antibodies selected from among 96 kinds of recombinant humanized antibodies are shown in FIG. 4a, Table 12, FIG. 4b and Table 13. FIG. 4a and Table 12 show the binding capacity of the antibodies to CECACAM6 CD66c) antigen, and FIG. 4b and Table 13 are the results for the CEACAM1 (CD66a) antigen.
row,OD 450 nm [OD 450 nm],Binder
1,0.37,B1
2,0.53,B2
3,0.41,B3
4,0.3,B4
5,0.4,B5

# Target: T1, Antigen CD66c (CEACAM6; Sino …)
# Assay: ELISA, CEACAM6 coated 100 ng/well, antibody at 0.51 ng/ml
# Experimental: as §1, §2
row,OD 450 nm [OD 450 nm],Binder
1,0.38,B1
2,0.64,B2
3,0.49,B3
4,0.36,B4
5,0.41,B5

# Target: T2, CEACAM1 antigen (Sino Biological, Inc.)
# Assay: ELISA, CEACAM1 coated 100 ng/well, antibody at 0.51 ng/ml
# Experimental: as §1
row,OD 450 nm [OD 450 nm],Binder
1,0.04,B1
2,0.11,B2
3,0.1,B3
4,0.05,B4
5,0.1,B5

# Target: T2, CEACAM1 antigen (Sino Biological, Inc.)
# Assay: ELISA, CEACAM1 coated 100 ng/well, antibody at 1.52 ng/ml
# Experimental: as §1
row,OD 450 nm [OD 450 nm],Binder
1,0.05,B1
2,0.18,B2
3,0.16,B3
4,0.05,B4
5,0.16,B5

# Target: T1, Antigen CD66c (CEACAM6; Sino …)
# Assay: ELISA, CEACAM6 coated 100 ng/well, antibody at 41.15 ng/ml
# Experimental: as §1
row,OD 450 nm [OD 450 nm],Binder
1,1.38,B1
2,2.17,B2
3,1.73,B3
4,1.72,B4
5,2.02,B5

# Target: T2, CEACAM1 antigen (Sino Biological, Inc.)
# Assay: ELISA, CEACAM1 coated 100 ng/well, antibody at 13.72 ng/ml
# Experimental: as §1
row,OD 450 nm [OD 450 nm],Binder
1,0.05,B1
2,0.46,B2
3,0.43,B3
4,0.06,B4
5,0.51,B5

# Target: T1, Antigen CD66c (CEACAM6; Sino …)
# Assay: ELISA, CEACAM6 coated 100 ng/well, antibody at 123.46 ng/ml
# Experimental: as §1, §2
row,OD 450 nm [OD 450 nm],Binder
1,2.22,B1
2,2.9,B2
3,2.29,B3
4,2.56,B4
5,2.83,B5

# Target: T2, CEACAM1 antigen (Sino Biological, Inc.)
# Assay: ELISA, CEACAM1 coated 100 ng/well, antibody at 123.46 ng/ml
# Experimental: as §1
row,OD 450 nm [OD 450 nm],Binder
1,0.07,B1
2,0.82,B2
3,0.7,B3
4,0.1,B4
5,0.95,B5

# Target: T2, CEACAM1 antigen (Sino Biological, Inc.)
# Assay: ELISA, CEACAM1 coated 100 ng/well, antibody at 1111.11 ng/ml
# Experimental: as §1
row,OD 450 nm [OD 450 nm],Binder
1,0.19,B1
2,1.06,B2
3,1.17,B3
4,0.21,B4
5,1.21,B5

# Target: T1, Antigen CD66c (CEACAM6; Sino …)
# Assay: ELISA, CEACAM6 coated 100 ng/well, antibody at 10000.00 ng/ml
# Experimental: as §1, §2
row,OD 450 nm [OD 450 nm],Binder
1,2.87,B1
2,3.37,B2
3,2.73,B3
4,3.43,B4
5,3.17,B5
